# Experimental data as given in IntAct's records for PubMed 29892012.
# B1: Genetic suppressor element 1 (Homo sapiens), Q14687 (parent)
# chain: MKGMSHEPKSPSLGMLSTATRTTATVNPLTPSPLNGALVPSGSPATSSALSAQAAPSSSFAAALRKLAKQAEEPRGSSLSSESSPVSSPATNHSSPASTPKRVPMGPIIVPPGGHSVPSTPPVVTIAPTKTVNGVWRSESRQDAGSRSSSGGRERLIVEPPLPQEKAGGPAIPSHLLSTPYPFGLSPSSVVQDSRFPPLNLQRPVHHVVPPSTVTEDYLRSFRPYHTTDDLRMSSLPPLGLDPATAAAYYHPSYLAPHPFPHPAFRMDDSYCLSALRSPFYPIPTPGSLPPLHPSAMHLHLSGVRYPPELSHSSLAALHSERMSGLSAERLQMDEELRREREREREREREREADREREKEREREREKEREQEKEREREKERERELERQREQRAREKELLAAKALEPSFLPVAELHGLRGHATEERGKPSEQLTPTRAEKLKDAGLQAPKPVQHPLHPVPTPHHTVPSLISNHGIFSLPSSSAATALLIQRTNEEEKWLARQRRLRQEKEDRQSQVSEFRQQVLEQHLDMGRPPVPAEAEHRPESTTRPGPNRHEPGGRDPPQHFGGPPPLISPKPQLHAAPTALWNPVSLMDNTLETRRAESHSLHSHPAAFEPSRQAAVPLVKVERVFCPEKAEEGPRKREPAPLDKYQPPPPPPREGGSLEHQPFLPGPGPFLAELEKSTQTILGQQRASLPQAATFGELSGPLKPGSPYRPPVPRAPDPAYIYDEFLQQRRRLVSKLDLEERRRREAQEKGYYYDLDDSYDESDEEEVRAHLRCVAEQPPLKLDTSSEKLEFLQLFGLTTQQQKEELVAQKRRKRRRMLRERSPSPPTIQSKRQTPSPRLALSTRYSPDEMNNSPNFEEKKKFLTIFNLTHISAEKRKDKERLVEMLRAMKQKALSAAVADSLTNSPRDSPAVSLSEPATQQASLDVEKPVGVAASLSDIPKAAEPGKLEQVRPQELSRVQELAPASGEKARLSEAPGGKKSLSMLHYIRGAAPKDIPVPLSHSTNGKSKPWEPFVAEEFAHQFHESVLQSTQKALQKHKGSVAVLSAEQNHKVDTSVHYNIPELQSSSRAPPPQHNGQQEPPTARKGPPTQELDRDSEEEEEEDDEDGEDEEEVPKRKWQGIEAVFEAYQEHIEEQNLERQVLQTQCRRLEARHYSLSLTAEQLSHSVAELRSQKQKMVSERERLQAELDHLRKCLALPAMHWPRGYLKGYPR
# partner: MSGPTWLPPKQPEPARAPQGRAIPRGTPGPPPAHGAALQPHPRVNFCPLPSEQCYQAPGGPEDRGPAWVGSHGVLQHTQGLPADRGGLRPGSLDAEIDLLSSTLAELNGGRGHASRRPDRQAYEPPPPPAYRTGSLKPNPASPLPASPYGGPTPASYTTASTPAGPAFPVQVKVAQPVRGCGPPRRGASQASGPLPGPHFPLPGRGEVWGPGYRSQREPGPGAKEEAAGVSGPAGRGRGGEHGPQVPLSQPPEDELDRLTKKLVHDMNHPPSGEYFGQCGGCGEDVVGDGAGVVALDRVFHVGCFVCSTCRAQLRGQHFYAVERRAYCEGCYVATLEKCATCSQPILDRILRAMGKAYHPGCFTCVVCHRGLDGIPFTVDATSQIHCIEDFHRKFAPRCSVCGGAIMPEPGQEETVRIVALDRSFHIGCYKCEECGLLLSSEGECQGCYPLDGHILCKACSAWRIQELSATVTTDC
# B2: Inositol polyphosphate 5-phosphatase K (Homo sapiens), Q9BT40 (parent)
# chain: MSSRKLSGPKGRRLSIHVVTWNVASAAPPLDLSDLLQLNNRNLNLDIYVIGLQELNSGIISLLSDAAFNDSWSSFLMDVLSPLSFIKVSHVRMQGILLLVFAKYQHLPYIQILSTKSTPTGLFGYWGNKGGVNICLKLYGYYVSIINCHLPPHISNNYQRLEHFDRILEMQNCEGRDIPNILDHDLIIWFGDMNFRIEDFGLHFVRESIKNRCYGGLWEKDQLSIAKKHDPLLREFQEGRLLFPPTYKFDRNSNDYDTSEKKRKPAWTDRILWRLKRQPCAGPDTPIPPASHFSLSLRGYSSHMTYGISDHKPVSGTFDLELKPLVSAPLIVLMPEDLWTVENDMMVSYSSTSDFPSSPWDWIGLYKVGLRDVNDYVSYAWVGDSKVSCSDNLNQVYIDISNIPTTEDEFLLCYYSNSLRSVVGISRPFQIPPGSLREDPLGEAQPQI
# partner: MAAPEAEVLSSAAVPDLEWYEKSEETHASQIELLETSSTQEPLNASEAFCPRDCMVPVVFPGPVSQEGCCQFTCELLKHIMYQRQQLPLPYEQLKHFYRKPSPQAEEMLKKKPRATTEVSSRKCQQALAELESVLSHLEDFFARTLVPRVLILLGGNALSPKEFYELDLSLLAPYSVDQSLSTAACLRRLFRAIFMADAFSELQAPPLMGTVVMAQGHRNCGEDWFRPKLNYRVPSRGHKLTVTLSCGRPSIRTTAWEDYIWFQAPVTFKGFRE
# B3: Vacuolar protein-sorting-associated protein 25 (Homo sapiens), Q9BRG1 (parent)
# chain: MAMSFEWPWQYRFPPFFTLQPNVDTRQKQLAAWCSLVLSFCRLHKQSSMTVMEAQESPLFNNVKLQRKLPVESIQIVLEELRKKGNLEWLDKSKSSFLIMWRRPEEWGKLIYQWVSRSGQNNSVFTLYELTNGEDTEDEEFHGLDEATLLRALQALQQEHKAEIITVSDGRGVKFF
# partner: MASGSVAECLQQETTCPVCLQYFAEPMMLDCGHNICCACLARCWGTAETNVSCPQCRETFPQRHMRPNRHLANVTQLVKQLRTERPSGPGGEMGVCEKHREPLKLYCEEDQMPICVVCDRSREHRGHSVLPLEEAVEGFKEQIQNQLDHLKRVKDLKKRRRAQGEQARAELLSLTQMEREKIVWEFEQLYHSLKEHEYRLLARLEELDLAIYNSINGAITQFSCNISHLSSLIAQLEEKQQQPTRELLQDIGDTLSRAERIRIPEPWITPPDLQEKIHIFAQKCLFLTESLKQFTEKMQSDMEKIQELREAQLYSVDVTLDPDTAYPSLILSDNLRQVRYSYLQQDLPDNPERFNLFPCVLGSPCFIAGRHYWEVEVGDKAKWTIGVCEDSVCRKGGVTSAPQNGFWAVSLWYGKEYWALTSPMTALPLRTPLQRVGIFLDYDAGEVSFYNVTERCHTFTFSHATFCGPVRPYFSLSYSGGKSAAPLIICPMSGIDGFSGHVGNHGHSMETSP
# B4: Coiled-coil domain-containing protein 120 (Homo sapiens), Q96HB5-4 (parent)
# chain: MRREPRYQGQVGPDIHTDSERTLSSHQPRPLDSTKMEVKGQLISSPTFNAPAALFGEAAPQVKSERLRGLLDRQRTLQEALSLKLQELRKVCLQEAELTGQLPPECPLEPGERPQLVRRRPPTARAYPPPHPNQAHHSLCPAEELALEALEREVSVQQQIAAAARRLALAPDLSTEQRRRRRQVQADALRRLHELEEQLRDVRARLGLPVLPLPQPLPLSTGSVITTQGVCLGMRLAQLSQEDVVLHSESSSLSESGASHDNEEPHGCFSLAERPSPPKAWDQLRAVSGGSPERRTPWKPPPSDLYGDLKSRRNSVASPTSPTRSLPRSASSFEGRSVPATPVLTRGAGPQLCKPEGLHSRQWSGSQDSQMGFPRADPASDRASLFVARTRRSNSSEALLVDRAAGGGAGSPPAPLAPSASGPPVCKSSEVLYERPQPTPAFSSRTAGPPDPPRAARPSSAAPASRGAPRLPPVCGDFLLDYSLDRGLPRSGGGTGWGELPPAAEVPGPLSRRDGLLTMLPGPPPVYAADSNSPLLRTKDPHTRATRTKPCGLPPEAAEGPEVHPNPLLWMPPPTRIPSAGERSGHKNLALEGLRDWYIRNSGLAAGPQRRPVLPSVGPPHPPFLHARCYEVGQALYGAPSQAPLPHSRSFTAPPVSGRYYADFLYPPELSARLSDLTLEGEQSSSSDTQTPGTLV
# partner: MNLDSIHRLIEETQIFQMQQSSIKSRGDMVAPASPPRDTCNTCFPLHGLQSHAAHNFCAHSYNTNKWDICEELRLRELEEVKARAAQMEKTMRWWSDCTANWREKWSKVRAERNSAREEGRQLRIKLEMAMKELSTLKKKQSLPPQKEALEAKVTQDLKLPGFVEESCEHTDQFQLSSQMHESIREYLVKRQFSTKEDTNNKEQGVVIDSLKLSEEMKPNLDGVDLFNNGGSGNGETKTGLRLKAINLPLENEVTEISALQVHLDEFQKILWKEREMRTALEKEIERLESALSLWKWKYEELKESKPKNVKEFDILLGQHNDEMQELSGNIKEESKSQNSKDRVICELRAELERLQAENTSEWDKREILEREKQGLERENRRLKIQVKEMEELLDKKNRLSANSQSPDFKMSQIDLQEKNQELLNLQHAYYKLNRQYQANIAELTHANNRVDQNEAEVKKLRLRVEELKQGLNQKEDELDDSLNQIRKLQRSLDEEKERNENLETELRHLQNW
# B5: Solute carrier family 35 member C2 (Homo sapiens), Q9NQQ7 (parent)
# chain: MGRWALDVAFLWKAVLTLGLVLLYYCFSIGITFYNKWLTKSFHFPLFMTMLHLAVIFLFSALSRALVQCSSHRARVVLSWADYLRRVAPTALATALDVGLSNWSFLYVTVSLYTMTKSSAVLFILIFSLIFKLEELRAALVLVVLLIAGGLFMFTYKSTQFNVEGFALVLGASFIGGIRWTLTQMLLQKAELGLQNPIDTMFHLQPLMFLGLFPLFAVFEGLHLSTSEKIFRFQDTGLLLRVLGSLFLGGILAFGLGFSEFLLVSRTSSLTLSIAGIFKEVCTLLLAAHLLGDQISLLNWLGFALCLSGISLHVALKALHSRGDGGPKALKGLGSSPDLELLLRSSQREEGDNEEEEYFVAQGQQ
# Variants of: B1
# Conditions: with trip6_human TRIP6, Q15654
row,Variant,effect of a mutation on the interaction
1,R503Q,with no effect

# Variants of: B1
# Conditions: with trip6_human TRIP6, Q15654
# Remark: another data set of the same source
row,Variant,effect of a mutation on the interaction
1,E368K,with no effect

# Variants of: B2
# Conditions: with md2bp_human MAD2L1BP
row,Variant,effect of a mutation on the interaction
1,R437K,disrupting interaction strength

# Variants of: B3
# Conditions: with tri27_human TRIM27, P14373
row,Variant,effect of a mutation on the interaction
1,P58Q,disrupting interaction strength

# Variants of: B4
# Conditions: with CCDC102B
row,Variant,effect of a mutation on the interaction
1,R346W,with no effect

# Variants of: B5
# Conditions: with creb3_human CREB3, O43889
# Chain of creb3_human CREB3, O43889 (O43889 whole entry): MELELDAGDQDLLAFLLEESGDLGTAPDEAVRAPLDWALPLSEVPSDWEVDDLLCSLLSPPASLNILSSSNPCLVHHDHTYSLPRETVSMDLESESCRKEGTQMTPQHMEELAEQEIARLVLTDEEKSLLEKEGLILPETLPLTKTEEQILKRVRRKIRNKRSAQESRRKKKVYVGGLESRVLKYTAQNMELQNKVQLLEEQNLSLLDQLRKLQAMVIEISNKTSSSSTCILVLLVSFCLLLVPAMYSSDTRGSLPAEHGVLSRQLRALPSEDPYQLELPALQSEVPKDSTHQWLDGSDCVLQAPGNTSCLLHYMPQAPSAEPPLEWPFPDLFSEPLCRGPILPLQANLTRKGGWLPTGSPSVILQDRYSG
row,Variant,effect of a mutation on the interaction
1,G176S,with no effect
